Paper PMC8336524, “Yeast Bromodomain Factor 1 and Its Human Homolog TAF1 Play Conserved Roles in Promoting Homologous Recombination” (Advanced Science, 2021)

B1: GST‐Bdf1 residues 1–317 (domain or fragment, yeast, UniProt P35817 1-317, looked up)
chain: MTDITPVQNDVDVNGNNVNDDVSSNLKRPIDQGDPSNGLAEEENPANNQLHLKKARLDGDALTSSPAGLAENGIEGATLAANGENGYNATGSGAEDEQQGLKKEEGGQGTKQEDLDENSKQELPMEVPKEPAPAPPPEPDMNNLPQNPIPKHQQKHALLAIKAVKRLKDARPFLQPVDPVKLDIPFYFNYIKRPMDLSTIERKLNVGAYEVPEQITEDFNLMVNNSIKFNGPNAGISQMARNIQASFEKHMLNMPAKDAPPVIAKGRRSSAQEDAPIVIRRAQTHNGRPKRTIHPPKSKDIYPYESKKPKSKRLQQA
notes: source: E. coli (BL21), pGEX4T3; immobilized onto GSH‐sepharose beads
B2: GST‐Bdf1 residues 1–295 (domain or fragment, yeast, UniProt P35817 1-295, looked up)
chain: MTDITPVQNDVDVNGNNVNDDVSSNLKRPIDQGDPSNGLAEEENPANNQLHLKKARLDGDALTSSPAGLAENGIEGATLAANGENGYNATGSGAEDEQQGLKKEEGGQGTKQEDLDENSKQELPMEVPKEPAPAPPPEPDMNNLPQNPIPKHQQKHALLAIKAVKRLKDARPFLQPVDPVKLDIPFYFNYIKRPMDLSTIERKLNVGAYEVPEQITEDFNLMVNNSIKFNGPNAGISQMARNIQASFEKHMLNMPAKDAPPVIAKGRRSSAQEDAPIVIRRAQTHNGRPKRTIHP
notes: as for B1

Assays:
[1] = target: acetylated H4 peptide (1–22 aa) (UniProt P02309); assay: ITC; protein (≈50 µM DBD or 2YF‐DBD, ≈20 µM TAF1‐DBD) titrated with H4 peptide (≈1 mM or 0.5 mM) at 25 °C; 100 mM NaCl, 50 mM Tris‐HCl pH 7.5; 19 injections; One Set of Sites model
6xHis‐Rfa1 = target: T1, 6xHis‐Rfa1 (yeast, UniProt P22336 1-621); assay: pull-down; GST or GST fusion proteins immobilized on GSH‐sepharose beads, incubated with His‐tagged proteins at 4 °C for 4 h; wash 20 mM Tris–HCl pH 7.4, 200 mM NaCl, 0.5 mM EDTA; Western blot with anti‐His antibody; conditions: both partners purified
T1 construct: Rfa1, subunit of Replication Protein A (RPA), yeast; also called RPA (in the text on the truncations); source: E. coli (BL21), pET30a(+)
T1 sequence (P22336 whole entry, the tested form may be a part): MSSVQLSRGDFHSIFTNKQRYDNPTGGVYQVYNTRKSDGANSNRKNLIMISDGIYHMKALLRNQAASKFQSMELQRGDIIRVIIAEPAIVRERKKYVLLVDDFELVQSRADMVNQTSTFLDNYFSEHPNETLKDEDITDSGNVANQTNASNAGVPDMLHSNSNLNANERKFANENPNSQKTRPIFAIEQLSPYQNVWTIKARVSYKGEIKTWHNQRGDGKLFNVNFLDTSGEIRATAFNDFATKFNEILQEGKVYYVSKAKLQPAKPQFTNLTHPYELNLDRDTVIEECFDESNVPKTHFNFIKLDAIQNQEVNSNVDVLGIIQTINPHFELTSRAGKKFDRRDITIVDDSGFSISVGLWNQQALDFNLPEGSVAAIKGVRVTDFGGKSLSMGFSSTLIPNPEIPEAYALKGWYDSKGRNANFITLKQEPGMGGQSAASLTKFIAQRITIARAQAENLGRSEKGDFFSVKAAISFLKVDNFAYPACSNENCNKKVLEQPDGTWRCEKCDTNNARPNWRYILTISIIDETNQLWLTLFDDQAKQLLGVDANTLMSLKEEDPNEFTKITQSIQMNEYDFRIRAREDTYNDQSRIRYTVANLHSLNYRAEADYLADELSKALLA

Molecule	Kd [1]	binding result (6xHis‐Rfa1)
TAF1‐DBD used for ITC (domain or fragment)	5 µM	
DBD of Bdf1 used for ITC (domain or fragment)	6 µM	
B1		binds
B2		binds
